Test results from PMC9352680, “A comprehensive thermodynamic model for RNA binding by the Saccharomyces cerevisiae Pumilio protein PUF4”.
Where a chain is given by its changes, count along the chain named. Names and notes keep the numbering of the source.

T1: PUF4 RNA-binding domain (Saccharomyces cerevisiae, UniProt P25339 537-888)
T1 sequence: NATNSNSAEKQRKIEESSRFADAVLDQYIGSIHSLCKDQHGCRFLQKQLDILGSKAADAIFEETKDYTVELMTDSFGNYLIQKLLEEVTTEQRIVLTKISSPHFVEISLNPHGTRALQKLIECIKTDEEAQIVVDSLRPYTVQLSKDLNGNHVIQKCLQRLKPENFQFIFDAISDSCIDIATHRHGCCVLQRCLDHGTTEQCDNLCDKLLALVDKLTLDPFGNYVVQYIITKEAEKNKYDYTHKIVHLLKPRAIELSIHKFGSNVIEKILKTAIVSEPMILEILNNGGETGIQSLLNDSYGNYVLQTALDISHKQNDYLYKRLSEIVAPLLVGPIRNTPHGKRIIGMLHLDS

B1: Id_ii_S2_P4E.3_K4.2_C4.2_[C-2A]_[T-1C]_H4.2_A4.1_F4.1_T4.2_[G10C]_[T11G] (ssRNA)
RNA: UUUGAUUAAUAUGAUAUCGUUCUUUCUACUAUAUAUUACGUUCUUUCUCGAUAUCAUAUUAAUCUUU
B2: Id_ii_S2_P4E.3_K4.2_C4.2_[C-2A]_[T-1C]_H4.2_A4.1_F4.1_T4.2_[G10C]_[T11A] (ssRNA)
RNA: B1 RNA with G40A
B3: Id_ii_S2_P4E.3_K4.2_C4.2_[C-2T]_H4.2_A4.1_F4.1_T4.2_[G10C]_[T11A] (ssRNA)
RNA: B1 RNA with A28U, C29U, G40A
B4: Id_ii_S2_P4E.3_K4.2_C4.2_[C-2T]_[T-1C]_H4.2_A4.1_F4.1_T4.2_[G10C]_[T11C] (ssRNA)
RNA: B1 RNA with A28U, G40C
B5: Id_ii_S2_P4E.3_K4.2_C4.2_[C-2T]_H4.2_A4.1_F4.1_T4.2_[G10T]_[T11G] (ssRNA)
RNA: B1 RNA with A28U, C29U, C39U
B6: Id_ii_S2_P4E.3_K4.2_C4.2_[C-2G]_[T-1C]_H4.2_A4.1_F4.1_T4.2_[G10A] (ssRNA)
RNA: B1 RNA with A28G, C39A, G40U
B7: Id_ii_S2_P4E.3_K4.2_C4.2_[C-2T]_H4.2_A4.1_F4.1_T4.2_[G10C] (ssRNA)
RNA: B1 RNA with A28U, C29U, G40U
B8: Id_ii_S2_P4E.3_K4.2_C4.2_[C-2T]_[T-1C]_H4.2_A4.1_F4.1_T4.2_[G10C]_[T11A] (ssRNA)
RNA: B1 RNA with A28U, G40A
B9: Id_ii_S2_P4E.3_K4.2_C4.2_[C-2G]_H4.2_A4.1_F4.1_T4.2_[G10T]_[T11A] (ssRNA)
RNA: B1 RNA with A28G, C29U, C39U, G40A
B10: Id_ii_S2_P4E.3_K4.2_C4.2_[C-2G]_H4.2_A4.1_F4.1_T4.2_[G10T] (ssRNA)
RNA: B1 RNA with A28G, C29U, C39U, G40U
B11: Id_ii_S2_P4E.3_K4.2_C4.2_[C-2T]_[T-1A]_H4.2_A4.1_F4.1_T4.2_[G10C]_[T11C] (ssRNA)
RNA: B1 RNA with A28U, C29A, G40C
B12: Id_ii_S2_P4E.3_K4.2_C4.2_[C-2T]_[T-1C]_H4.2_A4.1_F4.1_T4.2_[G10T]_[T11C] (ssRNA)
RNA: B1 RNA with A28U, C39U, G40C
B13: Id_ii_S2_P4E.3_K4.2_C4.2_[C-2T]_[T-1C]_H4.2_A4.1_F4.1_T4.2_[G10A]_[T11C] (ssRNA)
RNA: B1 RNA with A28U, C39A, G40C
B14: Id_ii_S2_P4E.3_K4.2_C4.2_[C-2T]_[T-1C]_H4.2_A4.1_F4.1_T4.2_[G10T]_[T11A] (ssRNA)
RNA: B1 RNA with A28U, C39U, G40A
B15: Id_ii_S2_P4E.3_K4.2_C4.2_[C-2G]_[T-1C]_H4.2_A4.1_F4.1_T4.2_[G10T]_[T11C] (ssRNA)
RNA: B1 RNA with A28G, C39U, G40C
B16: Id_ii_S2_P4E.3_K4.2_C4.2_[C-2T]_[T-1C]_H4.2_A4.1_F4.1_T4.2_[G10A] (ssRNA)
RNA: B1 RNA with A28U, C39A, G40U
B17: Id_ii_S2_P4E.3_K4.2_C4.2_[C-2T]_H4.2_A4.1_F4.1_T4.2 (ssRNA)
RNA: B1 RNA with A28U, C29U, C39G, G40U
B18: Id_ii_S2_P4E.3_K4.2_C4.2_[C-2G]_[T-1C]_H4.2_A4.1_F4.1_T4.2_[G10C]_[T11A] (ssRNA)
RNA: B1 RNA with A28G, G40A
B19: Id_ii_S2_P4E.3_K4.2_C4.2_[C-2T]_[T-1A]_H4.2_A4.1_F4.1_T4.2_[T11C] (ssRNA)
RNA: B1 RNA with A28U, C29A, C39G, G40C
B20: Id_ii_S2_P4E.3_K4.2_C4.2_[C-2A]_[T-1G]_H4.2_A4.1_F4.1_T4.2_[G10T]_[T11C] (ssRNA)
RNA: B1 RNA with C29G, C39U, G40C
B21: Id_ii_S2_P4E.3_K4.2_C4.2_[C-2T]_H4.2_A4.1_F4.1_T4.2_[G10A]_[T11G] (ssRNA)
RNA: B1 RNA with A28U, C29U, C39A
B22: Id_ii_S2_P4E.3_K4.2_C4.2_[C-2A]_[T-1C]_H4.2_A4.1_F4.1_T4.2_[G10T]_[T11G] (ssRNA)
RNA: B1 RNA with C39U
B23: Id_ii_S2_P4E.3_K4.2_C4.2_[C-2A]_[T-1C]_H4.2_A4.1_F4.1_T4.2_[G10C]_[T11C] (ssRNA)
RNA: B1 RNA with G40C
B24: Id_ii_S2_P4E.3_K4.2_C4.2_[C-2T]_[T-1G]_H4.2_A4.1_F4.1_T4.2_[G10T]_[T11G] (ssRNA)
RNA: B1 RNA with A28U, C29G, C39U
B25: Id_ii_S2_P4E.3_K4.2_C4.2_[C-2A]_[T-1C]_H4.2_A4.1_F4.1_T4.2_[G10A]_[T11A] (ssRNA)
RNA: B1 RNA with C39A, G40A
B26: Id_ii_S2_P4E.3_K4.2_C4.2_[C-2G]_H4.2_A4.1_F4.1_T4.2_[G10C] (ssRNA)
RNA: B1 RNA with A28G, C29U, G40U
B27: Ib_S1_P5E.1_K5.1_C5.1_H5.1_[G2T]_A5.1_F5.1_[A10T]_T5.1 (ssRNA)
RNA: UCUCUUUUUAUUAUUUUCUCUU
B28: Ib_S1_P5E.1_K5.1_C5.1_H5.1_[G2A]_A5.1_F5.1_[A10T]_T5.1 (ssRNA)
RNA: UCUCUUUAUAUUAUUUUCUCUU
B29: Ib_S1_P5E.1_K5.1_C5.1_H5.1_[T3C]_A5.1_F5.1_[A10C]_T5.1 (ssRNA)
RNA: UCUCUUUGCAUUAUUCUCUCUU

Target: T1, PUF4 RNA-binding domain
Assay: Mg; RNA-MaP; 20 mM Na-HEPES pH 7.4, 30 mM KOAc, 0.75 mM MgCl2, 0.1% Tween-20, 5% glycerol, 0.1 mg/mL BSA, 2 mM DTT; 25 C; 0.0125-409.6 nM protein
Conditions: tags: N-His6-TEV cleaved; C-SNAP kept, Cy3B-labelled; label: tethered on chip by stalled RNA polymerase

Binder | Kd
B1 | 159 nM
B2 | 16.8 nM
B3 | 8.41 nM
B4 | 8.5 nM
B5 | 6.27 nM
B6 | 16.7 nM
B7 | 3.66 nM
B8 | 11.5 nM
B9 | 53.5 nM
B10 | 7.68 nM
B11 | 14.9 nM
B12 | 7 nM
B13 | 8.95 nM
B14 | 13.5 nM
B15 | 22.4 nM
B16 | 8.89 nM
B17 | 9.27 nM
B18 | 56.6 nM
B19 | 10.2 nM
B20 | 284 nM
B21 | 700 nM
B22 | 135 nM
B23 | 8.87 nM
B24 | 2.66 nM
B25 | 21.1 nM
B26 | 26.9 nM
B27 | > 2300 nM
B28 | 473 nM
B29 | > 2300 nM
